Source: paper PMC6441084, “The formin Drosophila homologue of Diaphanous2 (Diaph2) controls microtubule dynamics in colorectal cancer cells independent of its FH2-domain” (Scientific Reports, 2019)

B1: FH2-domain of Diaph2 (aa 624-1049), GST-fusion protein (domain or fragment, human, UniProt O60879 624-1049, looked up)
chain: YGMKQKKMYKPEVSMKRINWSKIEPTELSENCFWLRVKEDKFENPDLFAKLALNFATQIKVQKNAEALEEKKTGPTKKKVKELRILDPKTAQNLSIFLGSYRMPYEDIRNVILEVNEDMLSEALIQNLVKHLPEQKILNELAELKNEYDDLCEPEQFGVVMSSVKMLQPRLSSILFKLTFEEHINNIKPSIIAVTLACEELKKSESFNRLLELVLLVGNYMNSGSRNAQSLGFKINFLCKIRDTKSADQKTTLLHFIADICEEKYRDILKFPEELEHVESASKVSAQILKSNLASMEQQIVHLERDIKKFPQAENQHDKFVEKMTSFTKTAREQYEKLSTMHNNMMKLYENLGEYFIFDSKTVSIEEFFGDLNNFRTLFLEAVRENNKRREMEEKTRRAKLAKEKAEQEKLERQKKKKQLIDINKE
B2: full-length (FL) Diaph2 (Drosophila homologue of Diaphanous2), GST-fusion protein (natural protein, human, UniProt O60879 1-1101, looked up)
chain: MEQPGAAASGAGGGSEEPGGGRSNKRSAGNRAANEEETKNKPKLNIQIKTLADDVRDRITSFRKSTVKKEKPLIQHPIDSQVAMSEFPAAQPLYDERSLNLSEKEVLDLFEKMMEDMNLNEEKKAPLRNKDFTTKREMVVQYISATAKSGGLKNSKHECTLSSQEYVHELRSGISDEKLLNCLESLRVSLTSNPVSWVNNFGHEGLGLLLDELEKLLDKKQQENIDKKNQYKLIQCLKAFMNNKFGLQRILGDERSLLLLARAIDPKQPNMMTEIVKILSAICIVGEENILDKLLGAITTAAERNNRERFSPIVEGLENQEALQLQVACMQFINALVTSPYELDFRIHLRNEFLRSGLKTMLPDLKEKENDELDIQLKVFDENKEDDLTELSHRLNDIRAEMDDMNEVYHLLYNMLKDTAAENYFLSILQHFLLIRNDYYIRPQYYKIIEECVSQIVLHCSGMDPDFKYRQRLDIDLTHLIDSCVNKAKVEESEQKAAEFSKKFDEEFTARQEAQAELQKRDEKIKELEAEIQQLRTQAQVLSSSSGIPGPPAAPPLPGVGPPPPPPAPPLPGGAPLPPPPPPLPGMMGIPPPPPPPLLFGGPPPPPPLGGVPPPPGISLNLPYGMKQKKMYKPEVSMKRINWSKIEPTELSENCFWLRVKEDKFENPDLFAKLALNFATQIKVQKNAEALEEKKTGPTKKKVKELRILDPKTAQNLSIFLGSYRMPYEDIRNVILEVNEDMLSEALIQNLVKHLPEQKILNELAELKNEYDDLCEPEQFGVVMSSVKMLQPRLSSILFKLTFEEHINNIKPSIIAVTLACEELKKSESFNRLLELVLLVGNYMNSGSRNAQSLGFKINFLCKIRDTKSADQKTTLLHFIADICEEKYRDILKFPEELEHVESASKVSAQILKSNLASMEQQIVHLERDIKKFPQAENQHDKFVEKMTSFTKTAREQYEKLSTMHNNMMKLYENLGEYFIFDSKTVSIEEFFGDLNNFRTLFLEAVRENNKRREMEEKTRRAKLAKEKAEQEKLERQKKKKQLIDINKEGDETGVMDNLLEALQSGAAFRDRRKRIPRNPDNRRVPLERSRSRHNGAISSK

Biological target: microtubules (MTs) polymerised from purified tubulin (Cytoskeleton, # T240) (UniProt P02550 1-451)
Assay: cell-based or functional assay

Row | Binder | rate of MT-polymerization (turbidity at 340 nm, no taxol; 2 µM tubulin, 0.2 µM Diaph2 protein), fold against the buffer control [fold]
1 | B1 | 4
2 | B2 | 40
